Data published in patent US20050221400A1.
Blank lines part the entries; values can stand above or below the binder they belong to.

Biological target: PSCA (prostate stem cell antigen), human, PSCA v.1 (human) (UniProt O43653)
Test: FACS titration on SW780 cells, anti-hIgG-PE, Graphpad Prism sigmoidal dose-response fit

Kd: 0.28 nM
B1: Ha1-5.99 (antibody, IgG2, V domains shown)
VH: QVHLQQWGAGLLKPSETLSLTCAVYGGSFSGYYWSWIRQPPGKGLEWIGEINHSGSTSYKPSLKSRVTVSVDTSKNQFSLKLSYVTAADTAVYYCARDRGDYGDFLFDYWGQGTLVTVSS
VL: SPGERATLSCRASQSIGSTYLAWYQQKPGQAPRLLIYGASSRATGIPERFSGSGSGTDFTLTISGLEPEDFAVFYCQQCGSSPPTFGQGTKVEIKR

Kd: 0.23 nM
B2: Ha1-4.37 (antibody, V domains shown)
VH: PGALQESGPGLVRPSQTLSLTCTVSGGSISSGGTYYWIWIRQHPGKGLEWIGYIYYSGSTYYNPSLKSRVTISVDTSKNQFSLKLSSVTAADTAVYYCARDGITMVRGISGGMDVWGQGTTVTVSS
VL: ASVGDRVTITCRASQSISSHLNWYQQKPGKAPKLLIYAASSLQSGVPSRFSGSGSGTDFTLSISSLQPEDFATYFCQQSYSIPRTFGQGTKVEITR
